In publication PMC11719849, “Allosteric modulation of the Lon protease via ssDNA binding and local charge changes”:

T1: Lon (wild type) (Caulobacter crescentus, UniProt P0CAW0 1-799)
T1 sequence: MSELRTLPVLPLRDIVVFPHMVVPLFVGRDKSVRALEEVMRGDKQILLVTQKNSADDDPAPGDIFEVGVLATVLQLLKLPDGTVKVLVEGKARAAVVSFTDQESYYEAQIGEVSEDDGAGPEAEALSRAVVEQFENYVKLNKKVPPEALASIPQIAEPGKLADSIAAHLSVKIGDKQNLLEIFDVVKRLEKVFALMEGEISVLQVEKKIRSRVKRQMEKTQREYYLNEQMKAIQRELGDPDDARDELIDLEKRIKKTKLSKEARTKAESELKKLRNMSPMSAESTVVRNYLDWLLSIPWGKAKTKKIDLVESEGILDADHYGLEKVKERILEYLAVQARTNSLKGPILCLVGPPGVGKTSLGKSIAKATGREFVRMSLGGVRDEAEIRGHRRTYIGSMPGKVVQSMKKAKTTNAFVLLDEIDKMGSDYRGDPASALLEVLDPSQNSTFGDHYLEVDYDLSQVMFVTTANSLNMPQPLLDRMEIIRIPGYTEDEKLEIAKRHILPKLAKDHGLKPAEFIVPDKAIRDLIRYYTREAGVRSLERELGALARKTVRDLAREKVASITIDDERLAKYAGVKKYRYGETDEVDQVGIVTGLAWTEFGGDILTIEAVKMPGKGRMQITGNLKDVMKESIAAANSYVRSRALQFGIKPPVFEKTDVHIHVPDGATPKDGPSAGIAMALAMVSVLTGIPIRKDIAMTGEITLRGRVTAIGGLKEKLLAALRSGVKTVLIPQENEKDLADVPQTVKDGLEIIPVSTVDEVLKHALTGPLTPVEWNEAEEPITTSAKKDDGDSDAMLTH

T2: Lon4A (Caulobacter crescentus, UniProt P0CAW0 1-799, K301A;K303A;K305A;K306A)
T2 sequence: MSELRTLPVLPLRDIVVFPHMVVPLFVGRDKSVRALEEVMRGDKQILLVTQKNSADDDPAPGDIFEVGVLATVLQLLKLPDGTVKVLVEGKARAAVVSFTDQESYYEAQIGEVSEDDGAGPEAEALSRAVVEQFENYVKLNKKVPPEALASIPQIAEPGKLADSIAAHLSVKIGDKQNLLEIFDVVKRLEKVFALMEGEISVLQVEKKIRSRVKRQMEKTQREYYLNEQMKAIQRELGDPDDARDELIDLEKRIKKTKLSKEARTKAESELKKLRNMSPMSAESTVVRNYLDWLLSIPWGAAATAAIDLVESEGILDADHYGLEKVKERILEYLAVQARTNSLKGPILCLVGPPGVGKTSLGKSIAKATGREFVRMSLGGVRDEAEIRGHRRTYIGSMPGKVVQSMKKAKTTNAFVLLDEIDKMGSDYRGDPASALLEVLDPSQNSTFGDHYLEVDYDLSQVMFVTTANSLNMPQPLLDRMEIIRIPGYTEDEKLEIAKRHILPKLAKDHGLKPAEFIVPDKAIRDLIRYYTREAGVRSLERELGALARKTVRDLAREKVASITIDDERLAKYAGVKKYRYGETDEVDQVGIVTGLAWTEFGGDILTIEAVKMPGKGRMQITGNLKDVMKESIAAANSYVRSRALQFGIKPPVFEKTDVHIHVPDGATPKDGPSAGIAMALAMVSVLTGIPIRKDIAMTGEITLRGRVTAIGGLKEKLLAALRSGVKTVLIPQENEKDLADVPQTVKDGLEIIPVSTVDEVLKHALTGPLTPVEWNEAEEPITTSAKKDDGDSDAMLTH

T3: Lon4E (Caulobacter crescentus, UniProt P0CAW0 1-799, K301E;K303E;K305E;K306E)
T3 sequence: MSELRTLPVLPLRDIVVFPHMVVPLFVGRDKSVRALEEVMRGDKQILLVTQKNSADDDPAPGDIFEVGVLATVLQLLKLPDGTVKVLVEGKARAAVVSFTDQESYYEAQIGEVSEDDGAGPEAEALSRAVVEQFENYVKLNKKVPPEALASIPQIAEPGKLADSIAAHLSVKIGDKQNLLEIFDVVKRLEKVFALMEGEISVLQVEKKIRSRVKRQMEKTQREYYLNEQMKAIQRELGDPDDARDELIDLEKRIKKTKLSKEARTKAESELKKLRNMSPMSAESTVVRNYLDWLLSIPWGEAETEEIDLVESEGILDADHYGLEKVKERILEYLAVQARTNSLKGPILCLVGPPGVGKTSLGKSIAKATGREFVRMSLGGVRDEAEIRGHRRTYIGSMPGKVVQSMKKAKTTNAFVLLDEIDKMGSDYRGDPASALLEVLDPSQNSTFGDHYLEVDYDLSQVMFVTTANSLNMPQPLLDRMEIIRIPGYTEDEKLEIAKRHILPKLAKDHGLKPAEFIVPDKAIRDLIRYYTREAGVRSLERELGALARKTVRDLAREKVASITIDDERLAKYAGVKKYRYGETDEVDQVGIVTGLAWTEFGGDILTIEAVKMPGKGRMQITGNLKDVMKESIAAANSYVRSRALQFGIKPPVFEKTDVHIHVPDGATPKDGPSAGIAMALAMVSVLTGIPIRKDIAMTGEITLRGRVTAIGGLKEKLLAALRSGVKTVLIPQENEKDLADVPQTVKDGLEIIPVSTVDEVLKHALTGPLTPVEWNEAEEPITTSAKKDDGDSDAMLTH


Tests used:
Lon (wild type) = biological target: T1, Lon (wild type); assay: mass photometry; 200 nM Lon monomer; shift to HMW, median 592 kDa vs 515 kDa, consistent with one ssDNA per protomer; FP: 25 mM HEPES pH 7.5, 10 mM MgCl2, 100 mM KCl, 0.05% Tween-20, 30 C, 0.1 uM Lon (hexamer), 25 nM DNA; mass photometry in TK buffer, 200 nM Lon; details: protein: recombinant; chain copies: 6
Lon4A = biological target: T2, Lon4A; assay: fluorescence polarization; 0.1 uM Lon4A, 25 nM FAM-ssDNA; FP: 25 mM HEPES pH 7.5, 10 mM MgCl2, 100 mM KCl, 0.05% Tween-20, 30 C, 0.1 uM Lon (hexamer), 25 nM DNA; mass photometry in TK buffer, 200 nM Lon; details: protein: recombinant; chain copies: 6; label: FAM (printed at 5' side)
Lon4E = biological target: T3, Lon4E; assay: fluorescence polarization; 0.1 uM Lon4E, 25 nM FAM-ssDNA; FP: 25 mM HEPES pH 7.5, 10 mM MgCl2, 100 mM KCl, 0.05% Tween-20, 30 C, 0.1 uM Lon (hexamer), 25 nM DNA; mass photometry in TK buffer, 200 nM Lon; details: protein: recombinant; chain copies: 6; label: FAM (printed at 5' side)

Binder | binding result (Lon (wild type)) | binding result (Lon4A) | binding result (Lon4E)
TCGATTCTCGAGTTAGTCGTCTTCTGGTGCCGGAAA (ssDNA) [OPC698-Stim] | binds | – | –
AACGGATGATCCACAGGAGAGTCTGGCGCAGGGCGAGAG (ssDNA) [FAM-ssDNA (G1Box top strand)] | – | no binding | no binding
